Experimental data as given in article PMC6379670, “An ultra-high affinity ligand of HIV-1 TAR reveals the RNA structure recognized by P-TEFb” (Nucleic Acids Research, 2018).
Non-standard residues stand in square brackets, D forms with d. Residues, ends and D or L forms follow the SMILES beside them. *: point of attachment. 5FAM = O=C1OC2(c3ccc(O)cc3Oc3cc(O)ccc32)c2ccc(C(=O)*)cc21

What was measured:
[1] = system: Jurkat clone E4 (latent HIV provirus with LTR-driven GFP); assay: Reactivation from latency; assay type: cell-based, HIV-1; settings: E4 Jurkat cells, peptides 0.39-100 μM, TNFα 1 ng/ml, GFP by flow cytometry 24 h later, triplicate
Description: A 5 × 10^4 cells/well of Jurkat clone E4 (in RPMI ([38])) were added to a 96-well plate at the same time as a dilution series of JB181, cyclic L22 and linear L22 (0.39, 1.56, 6.25, 25, 50 and 100 μM) in triplicate. Four hours following peptide addition, tumor necrosis factor α (TNFα) (1 ng/ml, Peprotech, Rocky Hill, NJ) was added to stimulate HIV-1 transcription. Twenty-four hours later, the percentage of cells expressing GFP was determined by flow cytometry as described above.
Figure 3. (A) M7-luc cells were infected with the replication competent HIV-1 clone NLgNef at very low titer. Three days post-infection, GFP expression was measured by flow cytometry. […] (B) JB181 inhibits HIV-1 reactivation from latency. Tat-dependent expression of GFP is repressed in E4 Jurkat cells, which serve as a model of HIV latency. These cells were pre-incubated for 2 h with L22 (cyclic, green), L22 (linear, blue) or JB181 (cyclic, red) at concentrations 0.5–100 μM, then stimulated for reactivation by TNFα at 1ng/ml. Twenty-four hours later, reactivation as monitored by GFP expression was measured by flow cytometry. […] (C) Biochemical RT inhibition assays were conducted as described previously ([31]) for peptides JB59, JB60, JB181 and L50 along with AZT. (D) Competition EMSA comparing affinity of the P-TEFb/Tat1:57/AFF4 complex for wild-type HIV-TAR with or without JB181 pre-bound to TAR. […]

[2] = system: HIV-1 clone NLgNef in M7-luc cells; assay: Spreading infection (inhibition of viral spread); assay type: cell-based; settings: M7-luc cells infected with NLgNef
Description: A 5 × 10^6 5.25.EGFP.Luc.M7 cells (M7-luc, gift of N. Landau(36)) grown in Roswell Park Memorial Institute medium (RPMI) containing 25 mM 4-(2-hydroxyethyl)-1-piperazineethanesulfonic acid (HEPES) (GE Life Sciences, Pittsburgh, PA), 10% Fetal Bovine Serum (FBS) (Sigma, St. Louis, MO) and 100 μg/ml normocin (Invivogen, San Diego, CA) were infected with the HIV-1 strain NL43-GFP-IRES-Nef (NLgNef) that expresses Green Fluorescent Protein (GFP) and Nef on a bicistronic Nef messenger RNA (a gift of David Levy ([37])) at a low multiplicity of infection (<0.01 infectious units/cell). […] Forty-eight hours post peptide addition, the percentage of cells expressing GFP was determined by flow cytometry via BD Fortessa SORP (BD, Franklin Lakes, NJ). Flow cytometry data were analyzed using WinList 3D (Verity Software House, Topsham, ME). […]
To evaluate anti-viral potency, we tested compound JB181 for inhibition of viral spread (Figure 3A) by comparison with L22 and a linear peptide control (same sequence as L22 but not cyclized). […] Peptides were added 24 h post-infection and spread of infection determined after 72 h. […]
Figure 3. […] Three days post-infection, GFP expression was measured by flow cytometry. […] Twenty-four hours later, reactivation as monitored by GFP expression was measured by flow cytometry. […]

CD4+ T cells = assay type: cell-based; settings: human CD4+ T-cells; 1 mg/ml peptide in the extracellular medium; percent of cells containing peptide by flow cytometry
Description: (§1) Frozen, de-identified human PBMCs (Allcells, Alameda, CA) were thawed and stimulated with 6 IU IL-2 (R&D Systems, Minneapolis, MN) and 10 μg/ml concanavalin A (ConA, MilliporeSigma, Billerica, MA) in RPMI. Six days post-thaw, CD4+ T cells were positively isolated using an EasySep Human CD4 positive selection kit in a RoboSep robot (#18052RF, Stemcell Technologies, Cambridge, MA). 2D10 Jurkat cells ([38]) were also grown in RPMI. L22 selectively labeled with 5/6-carboxyfluorescein was added at indicated concentrations at indicated time points prior to flow cytometry analysis as described above.
(§2) Fig. S4. Uptake of fluorescein-labeled L22. a). The turn residue, Lys6, of L22 was first selectively labeled with 5/6-carboxyfluorescein using NHS coupling chemistry and incubated with either CD4+ T cells (top) […]
(§3) containing peptide was analyzed by flow cytometry. b). 2D10 Jurkat cells were first stimulated with TNFα for 4hrs then incubated with L22-AF647 (red) for 30min prior to FISH staining for HIV TAR RNA (yellow), nuclear staining with DAPI (blue) and GFP expression dependent on transcription of HIV (green).
(§4) Panel I overlay all four stains, Panel II is L22-AF647 only; Panel III is L22-AF647 and TAR FISH, Panel IV L22-AF647 and GFP expression.
(§5) (1 picture or pasted object on this page, not shown here)

2D10 Jurkat cells = assay type: cell-based; settings: 1 mg/ml peptide in the extracellular medium, percent of cells containing peptide by flow cytometry
Description: as §1, §2, §3, §4, §5

JB185 (synthetic) = assay: EMSA
[3] = molecular target: P-TEFb/Tat1:57/AFF4;JB181 (HIV-1 (Tat); human? (P-TEFb, AFF4);synthetic) (UniProt O60563+P50750+P04608+Q9UHB7); assay: EMSA
JB190 (synthetic) = assay: EMSA
JB59 (synthetic) = assay: EMSA
JB58 (synthetic) = assay: EMSA
JB181 (synthetic) [4] = assay: EMSA
JB184 (synthetic) = assay: EMSA
L22 (synthetic) = assay: EMSA
JB186 (synthetic) = assay: EMSA
JB181 (synthetic) [5] = assay: 2-aminopurine fluorescence; settings: C24 replaced by 2-aminopurine
P-TEFb/Tat1:57/AFF4 = P-TEFb/Tat1:57/AFF4 (HIV-1 (Tat); (P-TEFb, AFF4), UniProt O60563;P50750;P04608;Q9UHB7 1-264;1-330;1-57;2-73); assay: EMSA; 250-fold excess yeast tRNA; RNA 100 pM; settings: protein: recombinant; copies: 1;1;1;1; label: 5'-32P; hairpin with UCU bulge

CC[C@H](C)[C@@H]1NC(=O)[C@H](CCCNC(=N)N)NC(=O)[C@H](CCCNC(=N)N)NC(=O)CNC(=O)[C@H](CCCCN)NC(=O)[C@H](CCCNC(=N)N)NC(=O)[C@H]([C@@H](C)O)NC(=O)[C@H](CCCNC(=N)N)NC(=O)[C@H](C(C)C)NC(=O)[C@H](CCCNC(=N)N)NC(=O)[C@@H]2CCCN2C(=O)[C@H]2CCCN2C(=O)[C@H]([C@@H](C)CC)NC(=O)[C@H](CCCNC(=N)N)NC1=O [Peptide L22] (cyclo(RVRTRKGRRIRI[dP]P))
inhibition of HIV-1 reactivation from latency (in words) [1]: inhibit at similar levels | inhibition of HIV-1 reactivation from latency (in words) ([1]; listed as cyclic L22): blocked reactivation | reduction of infection compared to no peptide controls ([2]; peptides 12.5 to 100 μM added 24 h post-infection, % GFP-expressing cells by flow cytometry, triplicate): > 50% | inhibition of viral replication and spread (in words) ([2]; peptides 12.5 to 100 μM, GFP by flow cytometry): blocked replication and spread

CC[C@H](C)[C@@H]1NC(=O)[C@H](CCCNC(=N)N)NC(=O)[C@H](CCCNC(=N)N)NC(=O)CNC(=O)[C@H](CCCCNC(=O)c2ccc3c(c2)C(=O)OC32c3ccc(O)cc3Oc3cc(O)ccc32)NC(=O)[C@H](CCCNC(=N)N)NC(=O)[C@H]([C@@H](C)O)NC(=O)[C@H](CCCNC(=N)N)NC(=O)[C@H](C(C)C)NC(=O)[C@H](CCCNC(=N)N)NC(=O)[C@@H]2CCCN2C(=O)[C@H]2CCCN2C(=O)[C@H]([C@@H](C)CC)NC(=O)[C@H](CCCNC(=N)N)NC1=O [fluorescein-labeled L22] (cyclo(RVRTRK(5FAM)GRRIRI[dP]P))
uptake (in words) (CD4+ T cells): good uptake | uptake (in words) (2D10 Jurkat cells): good uptake

GGCAGAUCUGAGCCUGGGAGCUCUCUGCC [HIV-1 TAR]
Kd (JB185 (synthetic)): 0.5 nM | Kd [3]: 17 nM | Kd (JB190 (synthetic)): 1.6 nM | Kd (JB59 (synthetic)): 1 nM | Kd (JB58 (synthetic)): 3 nM | Kd (JB181 (synthetic) [4]): < 0.18 nM | Kd (JB184 (synthetic)): > 250 nM | Kd (L22 (synthetic)): 30 nM | Kd (JB186 (synthetic)): 1.2 nM

HIV-1 TAR C24 2-aminopurine
Kd (JB181 (synthetic) [5]): 0.028 nM

GGCAGAUCUGAGCCUGGGAGCUCUCUGCC (structured_RNA) [HIV-1 TAR]
Kd (P-TEFb/Tat1:57/AFF4): 9 ± 4 nM
